{
  "source": "patent US7303876B2",
  "about": "(Applera Corporation, priority 2000, dated 2007)",
  "key": {"[1]": {"tested_on": "BoDipy-labeled Casein Conjugate", "experiment": "Proteinase K digestion of BoDipy-labeled Casein Conjugate (fluorescence)", "assay_type": "biochemical", "conditions": "one hour, 60° C.", "source_text": "An assay was developed to measure the activity of Proteinase K with BoDipy-labeled Casein Conjugate (Enz Check Protease Assay Kit, Product number E6638; Molecular Probes, Eugene, Oreg.). The concentration of fluorescent BoDipy moieties in this derivatized conjugate is sufficiently high so that when the protein is intact, the fluorescence of individual moieties is quenched. Upon digestion of the derivatized casein by a protease, however, peptides containing a lower number of BoDipy dye molecules are released, resulting in an increase in fluorescence. To determine an initial dynamic range for an assay, BoDipy-labeled Casein was digested for one hour with a decreasing concentration of Proteinase K as follows. […] Following a one hour incubation at 60° C. with mixing, 100 μL aliquots were transferred to a 96-well optical plate (MicroAmp® Optical 96-Well Reaction Plate, Applied Biosystems, Foster City, Calif.) and the fluorescence was measured in an ABI Prism 7700 spectrophotometer (Applied Biosystems). The background fluorescence was determined by incubating the substrate in buffer without Proteinase K."}, "[2]": {"tested_on": "slices of liver", "experiment": "Maceration of liver slices by reaction compositions at 65° C.", "conditions": "65° C.; for maceration of liver slice: 1 mg/ml Proteinase K, No Additives", "method": "Initially, a series of reaction compositions were analyzed for their ability to disaggregate a biological sample, e.g., slices of liver. These reaction compositions comprised 100 mM Tris, pH 8.0, 20 mM dithiothreitol (DTT), and optionally,1 mg/ml Proteinase K, surfactants (e.g., cationic, nonionic and anionic detergents), chaotropes, or the additive 1-methyl-2-pyrollidinone (Sigma). Each reaction compositions was placed in a tube with a slice of liver and then incubated at 65° C. The tubes were observed periodically to determine which reaction compositions were able to efficiently macerate the sample."}, "[3]": {"target": "T1, Proteinase K (Parengyodontium album, UniProt P06873)", "T1 construct": "purchased Ambion 2546", "experiment": "Effect of surfactants on Proteinase K digestion of dye-labeled casein substrate", "assay_type": "biochemical", "conditions": "water, 0 minutes incubation, ambient temperature", "method": "To test the effect of cationic surfactants on the activity of Proteinase K, a series of reaction compositions were prepared as follows. Reaction compositions comprised: Casein BoDipy conjugate (1 μg, 10 ng/μL), 10 mM Tris, pH 8, 20 mM CaCl2, 1% surfactant (shown in Table 2 below) and a dilution series of Proteinase K at concentrations of 20 μg/ml, 5 μg/ml, 1.25 μg/ml, 0.31 μg/ml, 0.078 μg/ml, 0.02 μg/ml and 0.005 μg/ml. […] Reaction tubes were incubated at 60° C. in a 96-well optical plate (MicroAmp® Optical 96-Well Reaction Plate, Applied Biosystems) and the amount of released fluorescence was measured at the indicated time points using an ABI Prism 7700."}},
  "data": [
    {"molecule": "Proteinase K: protease (subtilisin), Ambion (protein, UniProt P06873 106-384, looked up) Proteinase K: AAQTNAPWGLARISSTSPGTSTYYYDESAGQGSCVYVIDTGIEASHPEFEGRAQMVKTYYYSSRDGNGHGTHCAGTVGSRTYGVAKKTQLFGVKVLDDNGSGQYSTIIAGMDFVASDKNNRNCPKGVVASLSLGGGYSSSVNSAAARLQSSGVMVAVAAGNNNADARNYSPASEPSVCTVGASDRYDRRSSFSNYGSVLDIFGPGTSILSTWIGGSTRSISGTSMATPHVAGLAAYLMTLGKTTAASACRYIADTANKGDLSNIPFGTVNLLAYNNYQA", "values": [
      {"measurement": "lowest Proteinase K concentration with released fluorescence detected", "setting": "[1]", "result": 50, "unit": "ng/mL"},
      {"measurement": "fluorescence signal plateau", "setting": "[1]; 10 μg/ml BoDipy-labeled Casein Conjugate", "result": "around 30,000 fluorescence units"},
      {"measurement": "maceration of liver slice", "setting": "[2]; 2-5 hr", "result": 0, "unit": "%"},
      {"measurement": "maceration of liver slice", "setting": "[2]; 16-24 hr", "result": 75, "unit": "%"},
      {"measurement": "ability to macerate the liver sample (in words)", "setting": "[2]", "result": "effectively digest the liver tissue, but only after extended incubation"},
      {"measurement": "proteolytic activity of Proteinase K without surfactant", "setting": "[3]", "result": "high proteolytic activity"}
    ]}
  ]
}
